One assay addresses CBX7 cbox (Homo sapiens) (UniProt O95931). The following applies: cited from earlier work.
Assay [1] has as its target T1, C-RING1B (C-terminal domain of RING1B), wild-type (human, UniProt Q99496 222-336).
T1 sequence (looked up): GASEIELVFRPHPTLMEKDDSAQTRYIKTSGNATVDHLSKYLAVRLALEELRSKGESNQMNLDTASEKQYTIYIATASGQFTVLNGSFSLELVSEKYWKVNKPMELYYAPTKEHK
The experiment in a line: SPR. In general terms: In SPR one partner is held on a chip, and binding of the other changes the refractive index at the surface.

The target of assay [2] is T2, C-RING1B 223–333 N306D (human, UniProt Q99496 223-333, N306D).
T2 sequence (looked up): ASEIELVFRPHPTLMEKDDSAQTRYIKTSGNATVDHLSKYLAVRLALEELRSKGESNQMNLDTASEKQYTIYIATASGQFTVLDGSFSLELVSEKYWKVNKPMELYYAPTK
The assay is described as follows: crystal structure.

Assay [3] addresses T1, C-RING1B (C-terminal domain of RING1B), …. The experiment in a line: AUC.
In assay [4] the target is T2, C-RING1B 223–333 N306D. The assay is described as follows: crystal structure. This is another data set of the same source.

Where two headings read alike, the source gives them in different places.

In general, Kd refers to the free concentration of one partner at which half of the binding sites on the other are occupied at equilibrium, for simple one-to-one binding. In the case of RING1B C-RING1B (from UniProt Q99496), the Kd with CBX7 cbox (Homo sapiens) was 9.2 nM. Turning to RPRLKNVDRSTAQQLAVTVGNVTVIITDFKEKTRS (domain or fragment, human, UniProt Q8N488 145-179, looked up) [MBP-RYBP 145–179], the affinity in assay [1], expressed as Kd, was 90 nM. In the case of RPRLKNVDRSTAQQLAVTVGNVTVIITDFKEKTRS (domain or fragment, human, UniProt Q8N488 145-179, looked up) [RYBP 145–179], the binding result with C-RING1B 223–333 N306D [2] is “binds”.

B1: RYBP 145–198 (domain or fragment, human, UniProt Q8N488 145-198, looked up)
chain: RPRLKNVDRSTAQQLAVTVGNVTVIITDFKEKTRSSSTSSSTVTSSAGSEQQNQ
What is called stoichiometry N is a count of units in the complex or per binding partner. Turning to B1, the “stoichiometry N” value in assay [3] came out at 1.

B2: MBP-RYBP 145–198 (domain or fragment, human, UniProt Q8N488 145-198, looked up)
chain: B1 chain
Regarding B2, the Kd in assay [1] was 100 nM. For the molecule EVTVTDITANSITVTFREAQAAEGFFRDRS (domain or fragment, human, UniProt O95931 219-248, looked up) [cbx7 219–248], the binding result with C-RING1B 223–333 N306D [4] is “binds”.

Source of the values: paper PMC4445678 (Structure (London, England : 1993), 2010).
